These results are taken from patent US6544504B1, “Combined use of interleukin 10 and methotrexate for immuno-modulatory therapy” (Schering Corporation, priority 1999, dated 2003).

Entries after “also recorded” stand apart in the source; their conditions may differ.

Common to all, as to type: in vivo, human
In series [1] the test system is patients with active rheumatoid arthritis. As to the kind of experiment: Safety and tolerance study of IL-10 plus stable MTX in active rheumatoid arthritis. On the procedure: (§1) A multinational, multicenter, sequentially randomized, double-blind, placebo-controlled, rising multiple-dose study of IL-10 plus methotrexate (MTX) treatment was completed in patients with active rheumatoid arthritis.
(§2) Fifty patients were to receive one of five dosing regimens of IL-10 (SC) (1 μg/kg daily, 4 μg/kg daily, 8 μg/kg three times a week [TIW], 8 μg/kg daily and 20 μg/kg TIW) or placebo for 28 days, in addition to stable dosing with MTX (Treatment Phase). The patients were followed for 8 weeks after the end of IL-10 dosing (Follow-up Phase). Patients received MTX at therapeutic doses for at least 4 months prior to study entry. The dose of MTX was 12.5-25 mg/week (oral, subcutaneous or intramuscular) and remained constant throughout the study (Screening, Treatment and Follow-up Phases).
(§3) Patients were sequentially enrolled into the study in dose cohorts starting with the lowest dose of IL-10. Safety was assessed for each dose level prior to progressing to the next higher dose. Ten patients were assessed at each of the IL-10 dose cohorts: 8 received IL-10 and 2 received placebo (4:1). There was no replacement of patients.
The primary objective was to evaluate, in a dose-escalating manner, the safety and tolerance of IL-10 (SC) therapy given daily or TIW plus MTX (oral/intramuscular/SC) over a 28 day period to patients with active rheumatoid arthritis. The secondary objectives were to evaluate the effect of IL-10 on measures of rheumatoid arthritis Disease Activity, and to determine changes in the circulating levels of soluble p55 and p75 TNF receptors and IL-1 receptor antagonist. Protocol-defined responders were defined as those patients with at least 20% ACR criteria, i.e. at least 20% improvement in number of tender joints, number of swollen joints and in at least 3 of 5 RA Disease Activity measures (i.e. subject's assessment of pain, disease activity or physical function and physician's global assessment of disease activity. […]

For series [2], the system named is TNFα, IL-1β, soluble TNF p55 and p75 receptors, IL-1 receptor antagonist. Briefly: Ex-vivo induced proinflammatory cytokines and circulating soluble TNF receptors / IL-1 receptor antagonist. Particulars: nearly all IL-10 treatment groups compared with placebo, plus MTX. On the procedure:
as §2
The primary objective was to evaluate, in a dose-escalating manner, the safety and tolerance of IL-10 (SC) therapy given daily or TIW plus MTX (oral/intramuscular/SC) over a 28 day period to patients with active rheumatoid arthritis. The secondary objectives were to evaluate the effect of IL-10 on measures of rheumatoid arthritis Disease Activity, and to determine changes in the circulating levels of soluble p55 and p75 TNF receptors and IL-1 receptor antagonist. […]

Series [3] deals with patients with active rheumatoid arthritis. Briefly: Rheumatoid arthritis Disease Activity / ACR response in the IL-10 plus MTX study. The protocol:
as §1, §2, §3
The primary objective was to evaluate, in a dose-escalating manner, the safety and tolerance of IL-10 (SC) therapy given daily or TIW plus MTX (oral/intramuscular/SC) over a 28 day period to patients with active rheumatoid arthritis. The secondary objectives were to evaluate the effect of IL-10 on measures of rheumatoid arthritis Disease Activity, and to determine changes in the circulating levels of soluble p55 and p75 TNF receptors and IL-1 receptor antagonist. Protocol-defined responders were defined as those patients with at least 20% ACR criteria, i.e. at least 20% improvement in number of tender joints, number of swollen joints and in at least 3 of 5 RA Disease Activity measures (i.e. subject's assessment of pain, disease activity or physical function and physician's global assessment of disease activity.
Fifty patients were enrolled and sequentially randomized to receive one of the five dosing regimens of IL-10 (SC) (1 μg/kg daily, 4 μg/kg daily, 8 μg/kg TIW, 8 μg/kg daily and 20 μg/kg TIW) or placebo which formed the intent-to-treat population (ITT). Mean duration of treatment was at least 26 days for each of the treatment groups. The treatment groups were similar in demographic characteristics except for slight differences in age. Baseline characteristics of RA Disease Activity were similar for treatment groups.

Setting [4] is: each IL-10 dose group plus MTX versus placebo plus MTX.

On to “IL-10: a cytokine produced by T lymphocytes; protein with sequence substantially identical to mature IL-10; most preferably recombinant human IL-10”, for which the safety and tolerance result in series [1] (IL-10 SC 1-20 μg/kg daily or TIW for 28 days plus stable MTX 12.5-25 mg/week) is “generally well tolerated; also recorded: safe and well tolerated”. Moreover, in series [1] (IL-10 SC for 28 days plus stable MTX), the “most frequently reported adverse events” value is reported as “headache, injection site reaction, nausea, musculoskeletal pain, with no dose-response relationship seen”. In addition, the “anti-dsDNA or anti IL-10 antibodies” value in series [1] (IL-10 SC for 28 days plus stable MTX, any time during the study) is recorded as “No anti-dsDNA or anti IL-10 antibodies were present”. Besides, in series [2], the “circulating serum levels of soluble TNF p55 and TNF p75 receptors and IL-1 receptor antagonists” value was “trend towards increased circulating serum levels”; the “production of ex-vivo induced proinflammatory cytokines (TNFα and IL-1β)” value is reported as “trend towards decreased production”. For the same substance, the “effects on rheumatoid arthritis Disease Activity (conclusion)” value in series [3] (IL-10 in combination with MTX, greatest for 8 μg/kg TIW, 8 μg/kg daily and 20 μg/kg TIW) is on record as “may have beneficial effects”. Besides, in series [3] (after 28 days of dosing versus baseline, ITT population, compared with placebo plus MTX), the “protocol-defined response (percentage of responders)” value is recorded as “trend toward a greater percentage of responders”. Moreover, the “mean change from baseline for individual clinical measures of rheumatoid arthritis disease activity” value in series [3] (after 28 days, compared with placebo plus MTX) is given as “generally showing a greater percentage of responders than in placebo group”. Also, in series [3] (setting [4]), the “percent of patients having a 20% improvement in disease activity (ACR 20)” value is “higher for each of the IL-10 treatment groups than for the placebo group” and the “percent of patients having a 50% improvement in disease activity (ACR 50)” value is listed as “higher for each of the IL-10 treatment groups than for the placebo group”.
